Experimental data taken from patent US20030191054A1.

Assays:
[1] = biological target: purified recombinant BAG-1 (beginning at residue 116 of SEQ ID NO:2) (human); assay: surface plasmon resonance (BIAcore), KD=Kd/Ka
[2] = biological target: purified recombinant BAG-2 (SEQ ID NO:4) (human); assay: surface plasmon resonance (BIAcore), KD=Kd/Ka
[3] = biological target: purified recombinant BAG-3 (SEQ ID NO:6) (human); assay: surface plasmon resonance (BIAcore), KD=Kd/Ka
[4] = biological target: purified recombinant BAG-1 (beginning at residue 116 of SEQ ID NO:2) (human); assay: surface plasmon resonance (BIAcore), BAG protein immobilized
[5] = biological target: purified recombinant BAG-2 (SEQ ID NO:4) (human); assay: as above
[6] = biological target: purified recombinant BAG-3 (SEQ ID NO:6) (human); assay: as above

Hsc70 in the soluble phase of the BIAcore assay
Kd [1]: 1.4 nM
Kd [2]: 2.4 nM
Kd [3]: 7.4 nM
koff [4]: 0.0003 s⁻¹
kon [4]: 210000 M⁻¹ s⁻¹
koff [5]: 0.0005 s⁻¹
kon [5]: 210000 M⁻¹ s⁻¹
koff [6]: 0.0017 s⁻¹
kon [6]: 240000 M⁻¹ s⁻¹
